Data from FireProtDB (doi:10.1110/ps.8.9.1843).

B1: Guanyl-specific ribonuclease T1, P00651 (parent)
chain: MMYSKLLTLTTLLLPTALALPSLVERACDYTCGSNCYSSSDVSTAQAAGYQLHEDGETVGSNSYPHKYNNYEGFDFSVSSPYYEWPILSSGDVYSGGSPGADRVVFNENNQLAGVITHTGASGNNFVECT
B2: Guanyl-specific ribonuclease Sa, P05798 (parent)
chain: DVSGTVCLSALPPEATDTLNLIASDGPFPYSQDGVVFQNRESVLPTQSYGYYHEYTVITPGARTRGTRRIITGEATQEDYYTGDHYATFSLIDQTC

Legend:
[1] = variants of: B1; conditions: Aspergillus oryzae (strain ATCC 42149 / RIB 40), 25 °C, Urea, CD, structure 1RN1, whole UniProt chain shown
[2] = variants of: B2; conditions: Kitasatospora aureofaciens; pH 7; Thermal; CD; MOPS 30 mM; structure 1RGG; whole UniProt chain shown

Variant | denaturant m value ([1]; pH 2.5, glycine 30 mM) | denaturant midpoint (higher = more stable) ([1]; pH 2.5, glycine 30 mM) | denaturant m value ([1]; pH 7, MOPS 30 mM) | denaturant midpoint (higher = more stable) ([1]; pH 7, MOPS 30 mM) | Tm [2] | unfolding enthalpy (van 't Hoff) [2]
D75A | 1.69 kcal/mol/M | 3.42 M | 1.21 kcal/mol/M | 5.67 M |  | 
E74K |  |  |  |  | 51.1 °C | 94 kcal/mol
D25K |  |  |  |  | 50.2 °C | 93 kcal/mol
